Results published in the supplement of paper PMC7125110.
± gives the standard error. For some assays here: This sample holds only a part of the variants without activity.

B1: glmS ribozyme (parent)
chain: AUAAAAGCGCCAGAACUACAGAAAUGUAGUUGACGAGGAGGAGGUUUAUCGAAUUUUCGGCGGAUGCCUCCAAA

What was measured:
Details in all cases: with glucosamine-6-phosphate
glucosamine-6-phosphate [1] = variants of: B1; test: kcat; higher = faster cleavage; RNA array
In short: (§1)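 The measurements used barcoded ribozyme variants on sequenced MiSeq chips, transcribed in situ by E. coli RNA polymerase and tracked at 37 °C with a hybridised Cy3 probe. Glucosamine-6-phosphate, 40 μM to 10 mM in HEPES/KCl/Mg(OAc)2 buffer, was flowed in while tiles were imaged over ~14 h. Baseline-normalised signals, also normalised to non-cleaving reference variants, gave per-tile medians that were fit to one- or two-exponential decays for kobs. kcat and KM resulted from weighted Michaelis–Menten fits across concentrations.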

glucosamine-6-phosphate [2] = variants of: B1; test: self-cleavage kobs at 40 uM GlcN6P; higher = faster cleavage; RNA array
In short: as §1

glucosamine-6-phosphate [3] = variants of: B1; test: self-cleavage kobs at 160 uM GlcN6P; higher = faster cleavage; RNA array
In short: as §1

glucosamine-6-phosphate [4] = variants of: B1; test: self-cleavage kobs at 2500 uM GlcN6P; higher = faster cleavage; RNA array
In short: as §1

glucosamine-6-phosphate [5] = variants of: B1; test: KM; higher = weaker cofactor use; RNA array
In short: as §1

glucosamine-6-phosphate [6] = variants of: B1; test: self-cleavage kobs at 640 uM GlcN6P; higher = faster cleavage; RNA array
In short: as §1

glucosamine-6-phosphate [7] = variants of: B1; test: self-cleavage kobs at 10000 uM GlcN6P; higher = faster cleavage; RNA array
In short: as §1

Row | Variant | kcat (glucosamine-6-phosphate [1]) [s⁻¹] | self-cleavage kobs at 40 uM GlcN6P (glucosamine-6-phosphate [2]) [s⁻¹] | self-cleavage kobs at 160 uM GlcN6P (glucosamine-6-phosphate [3]) [s⁻¹] | self-cleavage kobs at 2500 uM GlcN6P (glucosamine-6-phosphate [4]) [s⁻¹] | KM (glucosamine-6-phosphate [5]) [µM] | self-cleavage kobs at 640 uM GlcN6P (glucosamine-6-phosphate [6]) [s⁻¹] | self-cleavage kobs at 10000 uM GlcN6P (glucosamine-6-phosphate [7]) [s⁻¹]
1 | C50G G62A | 0.000121 ± 5.5e-05 | 3.58e-05 ± 1.1e-05 | 0.000128 ± 2.4e-05 | 0.000168 ± 3.3e-05 |  |  | 
2 | A48U U56G | 0.000239 ± 3.7e-06 |  |  |  | 1590 ± 58 | 6.91e-05 ± 2e-05 | 0.000206 ± 3.9e-05
3 | A48U U56C | 6.46e-05 ± 1e-05 |  | < 1e-05 | 4.13e-05 ± 1.7e-05 |  |  | 5.09e-05 ± 7.6e-06
4 | C50U U69G C70U | 5.07e-05 ± 2.4e-05 |  |  |  |  | 8.65e-05 ± 3.1e-05 | 
5 | C50G G66A | 4.08e-05 ± 1e-05 |  | 5.66e-05 ± 2.2e-05 |  |  |  | 
6 | A48U C70A | 1.64e-05 ± 7.1e-06 |  |  | 3.28e-05 ± 1.6e-05 |  |  | 
7 | A48U C70G | 3.29e-05 ± 1e-05 |  |  | 4.89e-05 ± 9.2e-06 |  | 3.69e-05 ± 1.1e-05 | 
8 | A48U U65G | 0.000116 ± 1e-05 | < 1e-05 |  | 8.19e-05 ± 1e-05 | 1390 ± 430 | 3.11e-05 ± 9.7e-06 | 9.9e-05 ± 9.7e-06
9 | C50A A53C U57G C58G | 6.76e-05 ± 2.5e-05 |  |  | 8.01e-05 ± 1.9e-05 |  | 0.000112 ± 2.3e-05 | 
10 | C50A C70U | 3.03e-05 ± 6.5e-06 |  |  | 3.95e-05 ± 6.5e-06 |  | 2.82e-05 ± 9.4e-06 | 1.9e-05 ± 7e-06
11 | C50G U56A | 3e-05 ± 4.9e-06 |  |  | 4.14e-05 ± 1.9e-05 |  |  | 
12 | C50A U54G U55C | 1.47e-05 ± 3.9e-06 |  |  |  |  |  | 
13 | C50U A64G | 0.000283 ± 5e-05 |  |  | 5.38e-05 ± 7.8e-06 |  | 2.41e-05 ± 1e-05 | 0.000141 ± 1.7e-05
14 | C50G A52G | 2.65e-05 ± 7.5e-06 |  | 3.58e-05 ± 1.7e-05 | 3.29e-05 ± 1.4e-05 |  |  | 
15 | C50U U55A | 8.88e-05 ± 8.3e-06 |  |  | 4.32e-05 ± 6.8e-06 | 2350 ± 570 | 2.43e-05 ± 9.1e-06 | 7.37e-05 ± 9.9e-06
16 | A48G U69C | 9.33e-05 ± 2.9e-05 |  |  | 9.27e-05 ± 3.5e-05 |  |  | 7.34e-05 ± 2.5e-05
17 | C50A U65G | 2.65e-05 ± 9.7e-06 |  |  |  |  |  | 
18 | G51C U69G | 1.7e-05 ± 4.2e-06 |  |  |  |  |  | 
19 | A52G A53U | 0.000266 ± 2.2e-05 |  |  | 0.000176 ± 3.4e-05 | 1900 ± 430 | 6.4e-05 ± 1.5e-05 | 0.000219 ± 2.3e-05
20 | A48U A53G | 0.000396 ± 3.6e-05 |  | 2.96e-05 ± 1.2e-05 | 0.000229 ± 3.5e-05 | 1560 ± 290 | 0.000127 ± 1.9e-05 | 0.000349 ± 4.7e-05
21 | G51A A53G | 1.13e-05 ± 5.2e-06 |  |  |  |  |  | 
22 | G51A A53C | < 1e-05 |  |  |  |  | < 1e-05 | 

Row | Variant | kcat (glucosamine-6-phosphate [1]) [s⁻¹] | self-cleavage kobs at 40 uM GlcN6P (glucosamine-6-phosphate [2]) [s⁻¹] | self-cleavage kobs at 160 uM GlcN6P (glucosamine-6-phosphate [3]) [s⁻¹] | self-cleavage kobs at 2500 uM GlcN6P (glucosamine-6-phosphate [4]) [s⁻¹] | KM (glucosamine-6-phosphate [5]) [µM] | self-cleavage kobs at 640 uM GlcN6P (glucosamine-6-phosphate [6]) [s⁻¹] | self-cleavage kobs at 10000 uM GlcN6P (glucosamine-6-phosphate [7]) [s⁻¹]
23 | A48G U65A | < 1e-05 |  | < 1e-05 |  |  |  | 
24 | A48G U65G | 8.76e-05 ± 3.5e-05 | < 1e-05 | < 1e-05 |  |  |  | 3.81e-05 ± 1.3e-05
25 | U49C C58G | < 1e-05 |  |  |  |  |  | < 1e-05
26 | A52C U55G | 5.71e-05 ± 5.1e-06 | < 1e-05 |  |  |  |  | 
27 | C50A A52C | < 1e-05 | < 1e-05 | < 1e-05 |  | 2730 ± 690 | < 1e-05 | 
28 | G51U C67A C71U | 2.47e-05 ± 3.5e-06 |  |  |  |  |  | 
29 | U49G C61A | 1.48e-05 ± 3.5e-06 |  |  |  |  |  | 
30 | C50U G59U | < 1e-05 | < 1e-05 |  |  | 71.2 ± 32 | < 1e-05 | < 1e-05
31 | C50U C68U | 2.09e-05 ± 3.8e-06 |  |  | 3e-05 ± 1.2e-05 |  |  | 
32 | U49G U55A | 0.00113 ± 0.0001 |  | 6.19e-05 ± 9.7e-06 | 0.000539 ± 5.5e-05 | 2740 ± 370 | 0.000213 ± 2.8e-05 | 0.000891 ± 0.00013
33 | C50U C61G C70U | 1.56e-05 ± 2.6e-06 |  |  |  |  |  | 
34 | A48U A64G | 0.00341 ± 0.00044 | 2.41e-05 ± 7.5e-06 | 8.32e-05 ± 1.7e-05 | 0.0012 ± 0.00016 | 5500 ± 1100 | 0.000385 ± 7.8e-05 | 0.00214 ± 0.00022
35 | U49A C67U | < 1e-05 | < 1e-05 |  |  |  |  | < 1e-05
36 | G51A U69A | 1.6e-05 ± 2.9e-06 |  |  |  |  |  | 
37 | A48U U54A | 0.000682 ± 2.5e-05 |  | 3.6e-05 ± 1.3e-05 | 0.00029 ± 7.8e-05 | 3130 ± 210 | 0.000113 ± 2.8e-05 | 0.000524 ± 7.9e-05
38 | A52C C70U | 5.27e-05 ± 9.4e-06 |  |  | 5.72e-05 ± 1e-05 |  |  | 4.63e-05 ± 7.5e-06
39 | U49G U54G C67A | 0.00023 ± 5.1e-05 |  |  | 0.000269 ± 7.4e-05 |  | 0.000235 ± 5.1e-05 | 0.000194 ± 3.6e-05
40 | U49C C67G | < 1e-05 | < 1e-05 | < 1e-05 |  |  |  | < 1e-05
41 | U49A C70G | 1.43e-05 ± 3.7e-06 |  |  |  |  |  | 
42 | U49A C70U | 2.22e-05 ± 1.1e-05 |  |  | 3.89e-05 ± 1.9e-05 |  |  | 
43 | U49A C68G | 2.5e-05 ± 5.3e-06 |  |  |  |  |  | 
44 | U49A C68A | 1.25e-05 ± 6e-06 | < 1e-05 |  |  |  |  | < 1e-05
